Patent US20250000991A1, “NECTIN-4 ANTIBODIES AND ANTIBODY-DRUG CONJUGATES” (Eli Lilly and Company, priority 2023, published 2025)
Numbering of substitutions follows the chain as printed.

T1: human Nectin-4 (Homo sapiens, UniProt Q96NY8)
T1 construct: His tag; purchased Acro Biosystems NE4-H52H3
T1 sequence (Q96NY8 32-510): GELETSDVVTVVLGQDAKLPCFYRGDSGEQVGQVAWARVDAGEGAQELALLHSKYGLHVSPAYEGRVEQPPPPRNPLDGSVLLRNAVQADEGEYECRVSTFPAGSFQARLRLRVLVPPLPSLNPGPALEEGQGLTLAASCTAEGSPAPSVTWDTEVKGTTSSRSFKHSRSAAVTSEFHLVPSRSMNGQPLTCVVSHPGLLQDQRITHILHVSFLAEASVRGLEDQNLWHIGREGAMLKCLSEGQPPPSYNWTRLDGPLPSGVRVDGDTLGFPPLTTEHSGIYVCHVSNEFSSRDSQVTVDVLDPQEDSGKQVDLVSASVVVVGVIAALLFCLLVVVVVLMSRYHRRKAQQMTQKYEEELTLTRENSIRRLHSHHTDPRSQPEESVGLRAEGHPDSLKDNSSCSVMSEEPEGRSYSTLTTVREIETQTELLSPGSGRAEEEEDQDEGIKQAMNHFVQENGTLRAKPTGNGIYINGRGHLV

B1: Ab6 (conjugate)
heavy: QVQLVQSGAEVKKPGASVKVSCKASGYTFTGYYMHWVRQAPGQGLEWMGIINPSGGSTTYAQKFQGRVTMTRDTSTSTVYMELSSLRSEDTAVYYCARGRLGTYFDYWGQGTLVTVSSASTKGPSVFPLAPSSKSTSGGTAALGCLVKDYFPEPVTVSWNSGALTSGVHTFPAVLQSSGLYSLSSVVTVPSSSLGTQTYICNVNHKPSNTKVDKRVEPKSCDKTHTCPPCPAPEAAGGPSVFLFPPKPKDTLMISRTPEVTCVVVSVSHEDPEVKFNWYVDGVEVHNAKTKPREEQYNSTYRVVSVLTVLHQDWLNGKEYKCKVSNKALPAPIEKTISKAKGQPREPQVYTLPPSREEMTKNQVSLTCLVKGFYPSDIAVEWESNGQPENNYKTTPPVLDSDGSFFLYSKLTVDKSRWQQGNVFSCSVMHEALHNHYTQKSLSLSPGK
light: SYVLTQPPSVSVAPGQTARITCGGNNIGSKSVHWYQQKPGQAPVLVVYDDSDRPSGIPERFSGSNSGNTATLTISRVEAGDEADYYCQVWDRSSDQVVFGGGTKLTVLGQPKAAPSVTLFPPSSEELQANKATLVCLISDFYPGAVTVAWKADSSPVKAGVETTTPSKQSNNKYAASSYLSLTPEQWKSHRSYSCQVTHEGSTVEKTVAPTECS
B2: Ab3 (conjugate)
heavy: EVQLVESGGGLVKPGGSLRLSCAASGFNLNHYNMNWVRQAPGKGLEWVSSVSSGGGFRYYADSVRGRFTISRDNAKNSLYLQMNSLRAEDTAVYYCARGAVFHDAFDIWGQGTLVTVSSASTKGPSVFPLAPSSKSTSGGTAALGCLVKDYFPEPVTVSWNSGALTSGVHTFPAVLQSSGLYSLSSVVTVPSSSLGTQTYICNVNHKPSNTKVDKRVEPKSCDKTHTCPPCPAPEAAGGPSVFLFPPKPKDTLMISRTPEVTCVVVSVSHEDPEVKFNWYVDGVEVHNAKTKPREEQYNSTYRVVSVLTVLHQDWLNGKEYKCKVSNKALPAPIEKTISKAKGQPREPQVYTLPPSREEMTKNQVSLTCLVKGFYPSDIAVEWESNGQPENNYKTTPPVLDSDGSFFLYSKLTVDKSRWQQGNVFSCSVMHEALHNHYTQKSLSLSPGK
light: DIQLTQSPSFLSASVGDRVTITCRASQDISSYLAWYQQKPGKAPKLLIYVASTLQSGVPSRFSGSGSGTEFTLTISSLQPEDFATYYCQQINSYPFTFGQGTKVEIKRTVAAPSVFIFPPSDEQLKSGTASVVCLLNNFYPREAKVQWKVDNALQSGNSQESVTEQDSKDSTYSLSSTLTLSKADYEKHKVYACEVTHQGLSSPVTKSFNRGEC
B3: Ab5 (conjugate)
heavy: QVQLVQSGAEVKKPGASVKVSCKASGYTFTSYYVHWVRQAPGQGLEWMGIINPSIISTSYAQKFQARVTMTRDTSTSTVYMELSSLRSEDTAVYYCARGLNFDAFDIWGQGTLVTVSSASTKGPSVFPLAPSSKSTSGGTAALGCLVKDYFPEPVTVSWNSGALTSGVHTFPAVLQSSGLYSLSSVVTVPSSSLGTQTYICNVNHKPSNTKVDKRVEPKSCDKTHTCPPCPAPEAAGGPSVFLFPPKPKDTLMISRTPEVTCVVVSVSHEDPEVKFNWYVDGVEVHNAKTKPREEQYNSTYRVVSVLTVLHQDWLNGKEYKCKVSNKALPAPIEKTISKAKGQPREPQVYTLPPSREEMTKNQVSLTCLVKGFYPSDIAVEWESNGQPENNYKTTPPVLDSDGSFFLYSKLTVDKSRWQQGNVFSCSVMHEALHNHYTQKSLSLSPGK
light: B2 light with D28G, V50A, I91L, S93N
B4: Ab4 (conjugate)
heavy: QVQLQESGPGLVKPSETLSLTCTVSGGSISGYYWSWIRQPPGKGLEWIGYIYYSGSTNYNPSLKSRVTISVDTSKNQFSLKLSSVTAADTAVYYCARLGIFFDAFDIWGQGTLVTVSSASTKGPSVFPLAPSSKSTSGGTAALGCLVKDYFPEPVTVSWNSGALTSGVHTFPAVLQSSGLYSLSSVVTVPSSSLGTQTYICNVNHKPSNTKVDKRVEPKSCDKTHTCPPCPAPEAAGGPSVFLFPPKPKDTLMISRTPEVTCVVVSVSHEDPEVKFNWYVDGVEVHNAKTKPREEQYNSTYRVVSVLTVLHQDWLNGKEYKCKVSNKALPAPIEKTISKAKGQPREPQVYTLPPSREEMTKNQVSLTCLVKGFYPSDIAVEWESNGQPENNYKTTPPVLDSDGSFFLYSKLTVDKSRWQQGNVFSCSVMHEALHNHYTQKSLSLSPGK
light: B2 light with D28G, V50A, I91F, F96W

Experiments:
[1] = test system: T24 mScarlet clone 5 Nectin-4 negative cells; assay: Bystander killing of T24-mScarlet clone 5 cells co-cultured with T24-human nectin4 clone108 (imaging); type: cell-based; settings: T24-mScarlet clone5 : T24-human nectin4 clone108 9:1, 5 days, ADC Formula XI DAR 8; read-out: IC50 of bystander effect
Protocol: T24 cell line was engineered to express mScarlet and clonally selected to test in bystander assay. T24-mScarlet clone5 and T24-human nectin4 clone108 were mixed and seeded at a total of 1000 cells/well/100 ul with a ratio of 9:1 in culture medium (McCoy's 5A+1× GlutaMax+10% Heat Inactivated Fetal Bovine Serum+400 μg/ml G418) in flat clear bottom 96-well plates. T24 mScarlet clone 5 cells were negative for nectin-4 expression. Plates were incubated at 37° C. with 5% CO2 overnight. Next day, ADCs were added at final working concentration from 50 nM, 1:4 serially diluted in culture medium. Plates were covered with Breathe-Easy® sealing membrane, placed in BioSpa and scanned in Cytation5 every day for 5 days.
Images of T24-mScarlet cells were captured and analyzed by Cytation5 with Gen5 Image Prime 3.11. Percentage of T24-mScarlet cell killing was calculated by decreased Integrated Intensity (area×mean intensity), normalized to zero hour and no treatment. Data was graphed and analyzed using GraphPad Prism version 9.5.1. IC50 was determined via log(inhibitor) vs. response-variable slope (four parameters) curve fitting.

cyno Nectin-4 = assay: Surface plasmon resonance (Biacore 8K+) binding of nectin-4 ADCs to cyno Nectin-4; settings: cyno Nectin-4, 37° C., ADC Formula XI DAR 8, n=1
Protocol: (§1) An anti-human Fc sensor surface was prepared by amine-coupling of goat anti-human IgG Fc (Southern Biotech Cat. No. 2014-01, Birmingham, AL) to a Biacore Series S CM4 (Cytiva Cat. No. BR-100534) sensor surface at 25° C. For immobilization, a running buffer of 10 mM HEPES, 150 mM NaCl, 0.05% Tween-20, pH 7.4 was used. Flow cells 1 & 2 of all 8 channels were activated with a 1:1 (v/v) mixture of 400 mM 1-Ethyl-3-(3-dimethylaminopropyl) carbodiimide hydrochloride (EDC) and […] N-Hydroxysuccinimide (NHS) at a flow rate of 10 uL/min for 7 minutes. Then the anti-human IgG Fc capture reagent was coupled to the sensor surface (diluted to 50 μg/mL in 10 mM Acetate pH 4.5 buffer) by injecting it in all flow cells and channels at a flow rate of 10 uL/min for 7 minutes. Remaining active groups were blocked by injecting 100 mM ethylenediamine (in 200 mM Borate buffer, pH 8.5) in all flow cells and channels at a flow rate of 10 uL/min for 7 minutes. All channels and flow cells were then preconditioned using three consecutive 1-minute injections of 75 mM phosphoric acid at 10 uL/min.
(§2) In each analysis cycle, a different ADC was captured on flow cell 2 of each channel by injecting it at 5 μg/mL and 10 uL/min. After capture, the same analyte was injected on flow cells 1 and 2 in all 8 channels for 2 minutes at 30 uL/n and dissociation was monitored for 10 minutes. After dissociation, all surfaces were regenerated with three 1-minute injections of 5 mM phosphoric acid at 10 uL/min. ADC capture and analyte cycles were repeated to obtain analyte binding of each ADC at concentrations of 0, 2.5, 7.4, 22, 67, 200 and 600 nM nectin-4.
(§3) Sensorgram data were fit globally with the default 1:1 binding model in Biacore Insight Evaluation Software v3.0.12.15655.

rat Nectin-4 = assay: Surface plasmon resonance (Biacore 8K+) binding of nectin-4 ADCs to rat Nectin-4; settings: rat Nectin-4, 37° C., ADC Formula XI DAR 8, n=1
Protocol: as §1, §2, §3

human Nectin-4 = molecular target: T1, human Nectin-4; assay: Surface plasmon resonance (Biacore 8K+) binding of nectin-4 ADCs to human Nectin-4; settings: human Nectin-4, 37° C., ADC Formula XI DAR 8; n=3 mean ± SD, n=2 replicate values
Protocol: as §1, §2, §3

Row | Molecule | IC50 [1] | KD (cyno Nectin-4; KD = kd/ka) | ka (rat Nectin-4) | kd (rat Nectin-4) | ka (human Nectin-4) | kd (human Nectin-4) | ka (cyno Nectin-4) | kd (cyno Nectin-4) | KD (rat Nectin-4; KD = kd/ka)
1 | B1 | 0.0587 nM | heterogeneous kinetics* | 925000 M⁻¹ s⁻¹ | 0.105 s⁻¹ | (1.78 ± 0.41) × 10^6 1/Ms | (1.63 ± 0.25) × 10^−1 1/s | – | – | –
2 | B2 | 0.047 nM | – | 171000 M⁻¹ s⁻¹ | 0.000903 s⁻¹ | (4.24 ± 0.76) × 10^5 1/Ms | (4.37 ± 1.56) × 10^−4 1/s | 432000 M⁻¹ s⁻¹ | 0.000426 s⁻¹ | –
3 | B3 | 0.0766 nM | – | 636000 M⁻¹ s⁻¹ | 0.0199 s⁻¹ | (8.78 ± 1.07) × 10^5 1/Ms | (3.46 ± 0.48) × 10^−3 1/s | 1.06e+06 M⁻¹ s⁻¹ | 0.0033 s⁻¹ | –
4 | B4 | 0.0798 nM | – | – | – | (3.59 ± 0.80) × 10^5 1/Ms | (7.32 ± 1.19) × 10^−2 1/s | 380000 M⁻¹ s⁻¹ | – | weak binding
